# Test results as given in paper PMC5318909, “Nucleobindin 1 binds to multiple types of pre-fibrillar amyloid and inhibits fibrillization” (Scientific Reports, 2017).
# B1: Ca2+-free mutant variant of soluble nucleobindin 1 (mtNUCB1) (natural protein, human, UniProt Q02818 31-461, looked up)
# chain: RGAPNKEETPATESPDTGLYYHRYLQEVIDVLETDGHFREKLQAANAEDIKSGKLSRELDFVSHHVRTKLDELKRQEVSRLRMLLKAKMDAEQDPNVQVDHLNLLKQFEHLDPQNQHTFEARDLELLIQTATRDLAQYDAAHHEEFKRYEMLKEHERRRYLESLGEEQRKEAERKLEEQQRRHREHPKVNVPGSQAQLKEVWEELDGLDPNRFNPKTFFILHKINSDGVLDEQALEALFTKELEKVYDPKNEEDDMREMEEERLRMREHVMKNVKTNQDRLVTLEAFLASTQRKEFGDTGEGWETVEMHPAYTEEELRRFEEELAAREAELNAKAQRLSQETEALGRSQGRLEAQKRELQQAVLHMEQRKQQQQQQQGHKAPAAHPEGQLKFHPDTDDVPVPAPAGDQKEVDTSEKKLLERLPEVEVPQHL
# notes: His tag cleaved with PreScission protease; also called CLABP; source: E. coli BL21 (DE3), purified (Ni-NTA, Superdex200 SEC); not shown: His6, N-terminal, cleaved
# Key:
# [1] = target: the molecule itself; experiment: atomic force microscopy; mtNUCB1 alone plated on freshly cleaved mica, imaged in air in tapping mode; volume analysis of particles
# Aβ42 synthetic peptide = Aβ42 synthetic peptide (UniProt P05067 672-713); experiment: cell-based or functional assay
binder,measurement,setting,value
B1,stoichiometry N,[1],2
same,MTT viability of PC12 cells treated for 24 h with 100 nM Aβ42 and increasing doses of mtNUCB1: IC50 of protection,Aβ42 synthetic peptide,1400 nM
